According to patent US20240083986A1 (published 2024):

T1: natural Bet v 1 (Indoor, Cat #NA-BV1-1) (Betula verrucosa (European white birch, …, UniProt P15494 2-160))
T1 construct: Bought natural protein purified from birch pollen; also called nBet v 1
T1 sequence: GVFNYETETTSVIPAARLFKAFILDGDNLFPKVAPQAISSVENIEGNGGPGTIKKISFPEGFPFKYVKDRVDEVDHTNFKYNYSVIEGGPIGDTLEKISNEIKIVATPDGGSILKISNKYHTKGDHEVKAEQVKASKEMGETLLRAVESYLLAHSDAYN

T2: Alder (Aln g 1, MyBiosource, Cat #MBS1041484) (Alder, UniProt P38948 2-160, limits assumed)
T2 construct: Bought reagent
T2 sequence (looked up): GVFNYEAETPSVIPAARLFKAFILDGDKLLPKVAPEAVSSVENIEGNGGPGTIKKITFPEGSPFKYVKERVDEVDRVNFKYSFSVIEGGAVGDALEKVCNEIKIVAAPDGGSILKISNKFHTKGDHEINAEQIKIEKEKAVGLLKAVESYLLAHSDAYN

T3: Apple (Mal d 1, MyBiosource, Cat #MBS1224919) (Apple, UniProt P43211 2-159, limits assumed)
T3 construct: Bought reagent
T3 sequence (looked up): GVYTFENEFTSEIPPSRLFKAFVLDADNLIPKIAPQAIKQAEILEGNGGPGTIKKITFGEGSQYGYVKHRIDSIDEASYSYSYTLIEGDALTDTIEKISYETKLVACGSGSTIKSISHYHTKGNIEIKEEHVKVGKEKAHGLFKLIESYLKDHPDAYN

T4: Celery (Api g 1, MyBiosource, Cat #MBS1171376) (Celery, UniProt P49372 1-154, limits assumed)
T4 construct: Bought reagent
T4 sequence (looked up): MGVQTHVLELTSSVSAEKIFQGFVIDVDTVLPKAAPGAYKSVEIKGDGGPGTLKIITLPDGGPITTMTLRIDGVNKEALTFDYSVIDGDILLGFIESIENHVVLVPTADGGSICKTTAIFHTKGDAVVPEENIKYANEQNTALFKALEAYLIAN

T5: European Hornbeam (Car b 1 isoform 2, MyBiosource, Cat #MBS1043940) (European Hornbeam, UniProt P38950 2-160, limits assumed)
T5 construct: Bought reagent
T5 sequence (looked up): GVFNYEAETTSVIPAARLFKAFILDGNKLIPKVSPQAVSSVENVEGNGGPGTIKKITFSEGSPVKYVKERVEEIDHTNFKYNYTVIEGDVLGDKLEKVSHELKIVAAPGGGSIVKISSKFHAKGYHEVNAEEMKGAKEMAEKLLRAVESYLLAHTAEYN

T6: European Hornbeam (Car b 1 isoform 1A & 1B, MyBiosource, Cat #MBS1200018) (European Hornbeam, UniProt P38949 2-160)
T6 construct: Bought reagent
T6 sequence (looked up): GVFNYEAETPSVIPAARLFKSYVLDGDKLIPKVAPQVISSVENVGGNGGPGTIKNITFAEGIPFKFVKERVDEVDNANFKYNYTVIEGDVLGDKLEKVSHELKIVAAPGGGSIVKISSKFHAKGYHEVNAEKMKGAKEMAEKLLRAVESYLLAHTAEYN

B1: H4H16950P (antibody, human IgG4, V domains shown)
VH: QVQLVQSGAEVKKPGASVKVSCKTSGYTFTNYGITWVRQAPGQGLEWMGWISAYNGNTNYAQNVQGRVTMTTDTSTSTAYMEVRSLRSDDTAVYYCARRSSMLHFQHWGQGTLVTVSS
VL: DIVMTQSPDSLAVSLGERATINCKSSQHVLYDSSNENYLAWFQQKPGQPPKLLIYWASTRESGVPDRFSGSGSGTDFTLTISSLQAEDVAVYYCQQYSSAPYTFGQGTKLEIK
B2: H4H16960P (antibody, human IgG4, V domains shown)
VH: QLQLQESGPGLVRPSETLSLTCTVSGGSISSSNYWWGWIRQPPGKGLEWIGSIYYSGITYYNPSLKSRVTISADTSKDQFSLKLRSVTAADTAVYYCAKLEWLRLDFWGQGTTVTVSS
VL: DIQMTQSPSSVSASVGDRVTITCRASQGISSWLVWYQQKPGKVPKLLIYAASSLQSGVPLRFSGSGSGTDFTLTISSLQPEDFATYYCQQAKSFPLTFGQGTRLEIK
B3: H4H16991P (antibody, human IgG4, V domains shown)
VH: QVQLVQSGAEVRKPGASVKVSCKASGYTFTGYYLHWVRQAPGQGLEWMGLINPNTGGTNFAQKFQGRVTMTRDSSISAAYMELSRLRSDDTAVYYCARQHWNRYFDNWGQGTLVTVSS
VL: DIQMTQSPSTLSASVGDRVTITCRASQSVGNWLAWYQQKPGKAPKLLIQEASSIESGVPSRFSGSGSGTEFTLIVSSLQPDDFATYYCQQYNSYSWTFGHGTKVEIK
B4: H4H17015P (antibody, human IgG4, V domains shown)
VH: QVQLQESGPGLVKPSQTLSLTCTVSGGSISSADHYWSWIRQQPGKGLEWIGYISYRGTTYYNPTLESRVSISVDTFKNQFSLMLHSVTVADTAVYYCAKVLQGLVRFRDYGFDVWGQGTTVTVSS
VL: DIQLTQSPPFLSASVGDRVTITCWASQDISSYLAWYQQNPGKSPKLLIYDAFTLHTGVPSRFSGSGSGTEFTLTISSLQPEDFATFYCQHLYSFPFTFGPGTKVDIK
B5: H4H17045P2 (antibody, human IgG4, V domains shown)
VH: EVQLVESGGGLVQPGVSLRLSCVASGFTFSNYDITWIRQIPGKGLEWVSRISGSGGSTYFADSVKGRFIISRDNSKNTVYMQMNSLRAEDSAVYYCARRDSVLFSMNSWLDPWGQGTLVTVSS
VL: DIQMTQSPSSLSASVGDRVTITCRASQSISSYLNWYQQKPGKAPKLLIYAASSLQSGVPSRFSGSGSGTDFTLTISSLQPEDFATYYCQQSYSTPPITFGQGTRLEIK
B6: H4H17067P2 (antibody, human IgG4, V domains shown)
VH: EVQLVQSGAEVKKPGESLKISCSGSGYRFTNYWIAWVRQMPGKGLEWMGLIHPDDSDIRYSPSFQGQVTFSVDKSINTAYLQWSSLKASDTAMYYCTRQDGILWSHNAWFDPWGQGTLVTVSS
VL: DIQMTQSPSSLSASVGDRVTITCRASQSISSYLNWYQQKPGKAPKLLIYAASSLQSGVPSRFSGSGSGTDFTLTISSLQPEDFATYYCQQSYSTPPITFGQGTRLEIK

These binders were tested against T1, natural Bet v 1 (Indoor, Cat #NA-BV1-1) (assay: SPR Biacore, mAb captured on anti-hFc, 37C;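 note: purified anti-Bet v 1 monoclonal antibodies, HBS-ET running buffer pH 7.4, rate constants from 1:1 model fit with mass transport limitation, KD and t½ calculated from kinetic constants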).
Procedure: Equilibrium dissociation constants (KD) for natural Bet v 1 binding to purified anti-Bet v 1 monoclonal antibodies were determined using a real-time surface plasmon resonance biosensor (SPR-Biacore) on a Biacore 4000 instrument. All binding studies were performed in 10 mM HEPES, 150 mM NaCl, 3 mM EDTA, and 0.05% v/v surfactant Tween-20, pH 7.4 (HBS-ET) running buffer at 25° C. and 37° C. […] Association (kₐ) and dissociation (kd) rate constants were determined by fitting the real-time binding sensorgrams to a 1:1 binding model with mass transport limitation using Scrubber 2.0c curve-fitting software. Binding dissociation equilibrium constants (KD) and dissociative half-lives (t½) were calculated from the kinetic rate constants as:

Binder | 100 nM natural Bet v 1 Bound (RU) | Kd [nM] | koff [s⁻¹] | kon [M⁻¹ s⁻¹] | t½ [min]
B1 | 76 | 8.57 | 0.00121 | 141000 | 10
B2 | 65 | 2.54 | 0.00168 | 662000 | 6.8
B3 | 66 | 2.16 | 0.00108 | 500000 | 11
B4 | 84 | 2.7 | 0.000792 | 293000 | 15
B5 | 90 | 1.86 | 0.000441 | 237000 | 26
B6 | 80 | 5.48 | 0.00147 | 268000 | 7.9

The binders below were run against T1, natural Bet v 1 (Indoor, Cat #NA-BV1-1) (assay: SPR Biacore, mAb captured on anti-hFc, 25C;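 note: rate constants from sensorgrams fitted to a 1:1 model with mass transport limitation, KD and t½ derived from kinetic constants, run in HBS-ET buffer at pH 7.4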).

Binder | 100 nM natural Bet v 1 Bound (RU) | Kd [nM] | koff [s⁻¹] | kon [M⁻¹ s⁻¹] | t½ [min]
B1 | 58 | 5.23 | 0.000503 | 96100 | 23
B2 | 57 | 1.64 | 0.00069 | 422000 | 17
B3 | 57 | 1.06 | 0.000312 | 295000 | 37
B4 | 68 | 1.34 | 0.000246 | 184000 | 47
B5 | 69 | 1.22 | 0.000149 | 122000 | 78
B6 | 58 | 3.56 | 0.000402 | 113000 | 29

These binders were tested against T2, Alder (Aln g 1, MyBiosource, Cat …) (assay: SPR Biacore, 25C;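 note: binding of related allergens to purified monoclonal anti-Bet v 1 antibodies by surface plasmon resonance in HEPES-buffered saline pH 7.4, kinetics fitted to a 1:1 model with mass transport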).
Procedure: (§1) Equilibrium dissociation constants (KD) for different related allergens binding to purified anti-Bet v 1 monoclonal antibodies were determined using a real-time surface plasmon resonance biosensor (SPR-Biacore) on a Biacore 4000 instrument. All binding studies were performed in 10 mM HEPES, 150 mM NaCl, 3 mM EDTA, and 0.05% v/v surfactant Tween-20, pH 7.4 (HBS-ET) running buffer at 25° C. […] Binding studies were performed on the following related allergens: Alder (Aln g 1, MyBiosource, Cat #MBS1041484), Apple (Mal d 1, MyBiosource, Cat #MBS1224919), Carrot (Dau c 1.2, MyBiosource, Cat #MBS1212920), Celery (Api g 1, MyBiosource, Cat #MBS1171376), Celery (Api g 2, MyBiosource, Cat #MBS1047880), European Hornbeam (Car b 1 isoform 1A & 1B, MyBiosource, Cat #MBS1200018), European Hornbeam (Car b 1 isoform 2, MyBiosource, Cat #MBS1043940), Hazel (Cor A 1, MyBiosource, Cat #MBS5304600), and White Oak (Que a 1, MyBiosource, Cat #MBS1258822). […] Association (kₐ) and dissociation (kd) rate constants were determined by fitting the real-time binding sensorgrams to a 1:1 binding model with mass transport limitation using Scrubber 2.0c curve-fitting software. Binding dissociation equilibrium constants (KD) and dissociative half-lives (t½) were calculated from the kinetic rate constants as:

Binder | binding result
B3 | no binding (tested: 100 nM)
B4 | no binding (tested: 100 nM)
B5 | no binding (tested: 100 nM)
B6 | no binding (tested: 100 nM)

Each binder was assayed against T3, Apple (Mal d 1, MyBiosource, Cat …) (assay: SPR Biacore, 25C;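 note: binding of related allergens to purified monoclonal anti-Bet v 1 antibodies by surface plasmon resonance in HEPES-buffered saline pH 7.4, kinetics fitted to a 1:1 model with mass transport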).
Procedure: as §1

Binder | binding result
B1 | no binding (tested: 100 nM)
B2 | no binding (tested: 100 nM)
B3 | no binding (tested: 100 nM)
B4 | no binding (tested: 100 nM)
B5 | no binding (tested: 100 nM)
B6 | no binding (tested: 100 nM)

The binders below were run against T4, Celery (Api g 1, MyBiosource, Cat …) (assay: SPR Biacore, 25C;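 note: binding of related allergens to purified monoclonal anti-Bet v 1 antibodies by surface plasmon resonance in HEPES-buffered saline pH 7.4, kinetics fitted to a 1:1 model with mass transport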).
Procedure: as §1

Binder | binding result
B1 | no binding (tested: 100 nM)
B2 | no binding (tested: 100 nM)
B3 | no binding (tested: 100 nM)
B4 | no binding (tested: 100 nM)
B5 | no binding (tested: 100 nM)
B6 | no binding (tested: 100 nM)

What follows are binders tested against T5, European Hornbeam (Car b 1 isoform 2, …) (assay: SPR Biacore, 25C;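 note: binding of related allergens to purified monoclonal anti-Bet v 1 antibodies by surface plasmon resonance in HEPES-buffered saline pH 7.4, kinetics fitted to a 1:1 model with mass transport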).
Procedure: as §1

Binder | binding result
B1 | no binding (tested: 100 nM)
B2 | no binding (tested: 100 nM)
B4 | no binding (tested: 100 nM)
B5 | no binding (tested: 100 nM)
B6 | no binding (tested: 100 nM)

What follows are binders tested against T6, European Hornbeam (Car b 1 isoform 1A & …) (assay: SPR Biacore, 25C).
Procedure: as §1

Binder | binding result
B1 | no binding (tested: 100 nM)
B2 | no binding (tested: 100 nM)
B3 | no binding (tested: 100 nM)
B4 | no binding (tested: 100 nM)
B5 | no binding (tested: 100 nM)
B6 | no binding (tested: 100 nM)
